From patent US20230381316A1 (METHODIST HOSPITAL, published 2023)
Where a chain is given by its changes, count along the chain named. Blank lines part the entries; values can stand above or below the binder they belong to.

Key:
[1] = biological target: T1, Fluorescence-labeled PSMA protein (biotin-labelled purified PSMA protein with Alexa Fluor 647 Streptavidin) (human, UniProt Q04609 44-750, biotin label (EZ link Sulfo-NHS-Biotin), incubated with Alexa Fluor 647 Streptavidin); assay: flow cytometry of CAR T cells with fluorescence labeled recombinant PSMA protein as probe
T1 construct: This is the purified PSMA protein of m9 after labelling; also called fluorescence labeled recombinant PSMA protein; home-made fluorescent probe
Source text: (A3). In vitro cytotoxicity of PSMA-CAR T cells. Human peripheral blood mononuclear cells (PBMC) were isolated from leukopak following a SOP published by Hanc (HIV/ADIS Network Coordination). T cells including CD4+ and CD8+ T cells were isolated from PBMC with human T cell isolation kit (Miltenyi Biotec). T cells were activated by Dvnabeads human T-Activator CD3/CD28 (ThermoFisher) for 24 hrs, then transduced with lentiviruses expressing PSMA-CARs. Transduced cells were expanded for 8 to 21 days in culture. Flow cytometry was performed to determine the percentage of T cells that express functional CAR. To prepare home-made fluorescent probe, we labeled purified PSMA protein with biotin using EZ link Sulfo-NHS-Biotin (ThermoFisher), then incubated with Alexa Fluor® 647 Streptavidin (BioLegend) to obtain the probe.
For IFNγ induction (FIGS. 14C, 14D)), 4LH-CAR, 7LH-CAR, 5LH-CAR appeared to be the strongest. […] We also tested the in vitro killing on PSMA-positive VCaP cells, PSMA-negative wild type PC3 cells, and PSMA-positive PC3-PSMA stable cells. As anticipated, the PSMA-CAR T cell cytotoxicity IFNγ induction were strictly PSMA-dependent. Moreover, using fluorescence labeled recombinant PSMA protein as probe, flow cytometry analysis was performed on non-transduced and 11 PSMA-CAR T cells.

[2] = biological target: T2, prostate-specific membrane antigen (PSMA) on PSMA-positive prostate cancer cells (LNCaP, VCaP) (human, UniProt Q04609 1-750); assay: flow cytometry on LNCaP cells
T2 construct: Endogenous PSMA on LNCaP and VCaP cells; also called FOLH1; PSMA antigen on cancer cell surface

[3] = biological target: T2, prostate-specific membrane antigen …; assay: flow cytometry on mixed PC3 and LNCaP cells, 20 µg antibody, FITC anti-mouse IgG
Method: Next, the cells were incubated with FITC anti-mouse IgG secondary antibody (Biolegend, cat #406001), followed by flow cytometric analysis.

T2 sequence (Q04609 whole entry): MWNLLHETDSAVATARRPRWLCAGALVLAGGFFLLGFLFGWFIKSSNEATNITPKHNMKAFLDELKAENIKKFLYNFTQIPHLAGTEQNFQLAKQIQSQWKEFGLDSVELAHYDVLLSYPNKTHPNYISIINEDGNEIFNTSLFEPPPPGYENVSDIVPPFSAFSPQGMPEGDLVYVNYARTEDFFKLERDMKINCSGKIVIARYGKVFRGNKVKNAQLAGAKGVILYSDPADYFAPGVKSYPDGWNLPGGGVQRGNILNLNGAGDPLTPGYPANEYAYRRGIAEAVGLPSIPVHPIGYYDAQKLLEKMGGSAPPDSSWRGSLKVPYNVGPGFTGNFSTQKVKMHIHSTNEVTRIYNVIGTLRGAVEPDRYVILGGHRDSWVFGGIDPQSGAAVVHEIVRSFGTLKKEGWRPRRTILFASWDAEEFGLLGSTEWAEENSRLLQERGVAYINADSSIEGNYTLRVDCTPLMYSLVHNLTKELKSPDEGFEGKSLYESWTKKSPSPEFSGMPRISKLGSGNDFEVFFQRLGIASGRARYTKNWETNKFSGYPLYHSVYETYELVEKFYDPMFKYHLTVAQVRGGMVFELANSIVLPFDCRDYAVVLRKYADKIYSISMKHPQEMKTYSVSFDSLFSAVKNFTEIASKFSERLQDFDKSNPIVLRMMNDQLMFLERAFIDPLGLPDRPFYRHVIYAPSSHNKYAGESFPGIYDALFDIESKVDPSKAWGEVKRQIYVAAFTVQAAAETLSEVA
T1 sequence (Q04609 44-750): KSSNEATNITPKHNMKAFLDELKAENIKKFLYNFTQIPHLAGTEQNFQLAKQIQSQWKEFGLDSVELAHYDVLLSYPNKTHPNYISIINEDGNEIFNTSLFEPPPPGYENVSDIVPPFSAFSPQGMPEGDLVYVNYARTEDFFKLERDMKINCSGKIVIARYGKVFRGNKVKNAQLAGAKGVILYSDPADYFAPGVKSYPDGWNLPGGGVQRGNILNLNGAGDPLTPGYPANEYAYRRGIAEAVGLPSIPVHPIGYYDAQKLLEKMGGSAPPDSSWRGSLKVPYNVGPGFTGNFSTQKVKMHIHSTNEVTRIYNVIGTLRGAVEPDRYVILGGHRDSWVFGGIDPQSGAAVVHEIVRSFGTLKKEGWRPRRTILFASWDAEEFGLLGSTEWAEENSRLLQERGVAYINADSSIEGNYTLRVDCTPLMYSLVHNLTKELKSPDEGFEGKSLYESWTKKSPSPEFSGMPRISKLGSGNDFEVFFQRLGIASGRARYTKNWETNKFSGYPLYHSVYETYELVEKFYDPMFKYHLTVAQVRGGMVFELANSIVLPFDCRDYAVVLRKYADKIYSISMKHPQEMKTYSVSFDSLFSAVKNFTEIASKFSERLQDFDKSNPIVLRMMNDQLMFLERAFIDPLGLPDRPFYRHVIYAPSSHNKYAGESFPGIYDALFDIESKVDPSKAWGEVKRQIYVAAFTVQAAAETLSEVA

B1: PSMA(446)-CAR (CAR PMC 446, clone 1366, VH-linker-VL) (other)
chain: VKLQESGPGLVAPSQSLSITCTVSGFSLTDYGVSWIRQPPGKGLEWLGVIWSDGNTYYNSPLKSRLSINKDNSKSQVFLKMNSLQTDDSAMYYCARHKVYTMDYWGQGTSVTVSSGGGGSGGGGSGGGGSTVLTQSPAIMSASPGEKVTMTCRASSSVSSSYLHWYQQKSSASPKLWIYRTSNLASGVPARFSGSGSGTSYSLTISSLEAEDAATYYCQQYSGYPLTFGAGTKLELKRTTTPAPRPPTPAPTIASQPLSLRPEACRPAAGGAVHTRGLDFACDIYIWAPLAGTCGVLLLSLVITLYCKRGRKKLLYIFKQPFMRPVQTTQEEDGCSCRFPEEEEGGCELRVKFSRSADAPAYKQGQNQLYNELNLGRREEYDVLDKRRGRDPEMGGKPRRKNPQEGLYNELQKDKMAEAYSEIGMKGERRRGKGHDGLYQGLSTATKDTYDALHMQALPPR
notes: Chimeric antigen receptor on transduced human T cells; also called PMC446 CAR
- percentage of CAR T cells positive for PSMA binding [1]: 19.6%

B2: PSMA(7LH)-CAR, derived from antibody #1352 (VL-linker-VH) (other)
chain: DIVMTQSHKFMSTSVGDRVNITCKASQDVGTAVAWYQQKPGQSPKFLIYWASTRHTGVPDRFTGSGSGTDFTLTISNVQSEDLADYFCHQYTSYPFTFGSGTKLEMKRGGGGSGGGGSGGGGSVKLQQSGPELEKPGASVKISCKASGYSFTGYNVNWVKQSNGKSLEWIGNIDPYHGGTTYNQKFEAKATLTVDKSSSTAYMQLKSLTSEDSAVYYCARSSRFDYWGQGTTLTVSSTTTPAPRPPTPAPTIASQPLSLRPEACRPAAGGAVHTRGLDFACDIYIWAPLAGTCGVLLLSLVITLYCKRGRKKLLYIFKQPFMRPVQTTQEEDGCSCRFPEEEEGGCELRVKFSRSADAPAYKQGQNQLYNELNLGRREEYDVLDKRRGRDPEMGGKPRRKNPQEGLYNELQKDKMAEAYSEIGMKGERRRGKGHDGLYQGLSTATKDTYDALHMQALPPR
notes: Chimeric antigen receptor on transduced human T cells
- percentage of CAR T cells positive for PSMA binding [1]: 35.5%

B3: anti-PSMA mouse monoclonal antibody #219 (antibody, V domains shown)
VH: VQLQQSGPELEKPGASVKMSCKASGYSFTGYNVNWVRQNNGKSLEWIGNIDPLHGGTTYNQKFKAKATLTVDRSSSTAYLQLKNLTSEDSAVYYCARSSRFDYWGQGTTLTVSS
VL: DIVMTQSHKFMSTSVGDRVNITCKASQDVGTAVAWYQQKPGQSPKLLIYWASTRHTGVPDRFTGSGSGTDFTLTISNVQSEDLADYFCHQFTSYPFTFGSGTSLEMKR
notes: Full-length mouse IgG from a hybridoma
- binding result [2]: binds

B5: PSMA(448)-CAR (CAR PMC 448, clone 1207, VH-linker-VL) (other)
chain: VKLQQSGPGLVKPSQSLSLTCAVTGYSITSDYAWNWIRKFPGNKLEWMGYISYSGRTTYNPSLESRISITRDTSKNQFFLQLNSVTTEDTATYYCARCYYGSSSRWYGMDYWGRGTSVAVSSGGGGSGGGGSGGGGSIVLTQSPAIMSASPGVKVTMTCRASSSVDSSYLHWYQQKSGASPQVWIYSTSNLASGVPARFSGSGSGTSYSLTISSVEAEDAATYYCQQYSGYPLTFGGGTKLEIKRTTTPAPRPPTPAPTIASQPLSLRPEACRPAAGGAVHTRGLDFACDIYIWAPLAGTCGVLLLSLVITLYCKRGRKKLLYIFKQPFMRPVQTTQEEDGCSCRFPEEEEGGCELRVKFSRSADAPAYKQGQNQLYNELNLGRREEYDVLDKRRGRDPEMGGKPRRKNPQEGLYNELQKDKMAEAYSEIGMKGERRRGKGHDGLYQGLSTATKDTYDALHMQALPPR
notes: Chimeric antigen receptor on transduced human T cells; also called PMC448 CAR
- percentage of CAR T cells positive for PSMA binding [1]: 2.23%

B9: PSMA(444)-CAR (CAR PMC 444, clone 219, VH-linker-VL) (other)
chain: VQLQQSGPELEKPGASVKMSCKASGYSFTGYNVNWVRQNNGKSLEWIGNIDPLHGGTTYNQKFKAKATLTVDRSSSTAYLQLKNLTSEDSAVYYCARSSRFDYWGQGTTLTVSSGGGGSGGGGSGGGGSDIVMTQSHKFMSTSVGDRVNITCKASQDVGTAVAWYQQKPGQSPKLLIYWASTRHTGVPDRFTGSGSGTDFTLTISNVQSEDLADYFCHQFTSYPFTFGSGTSLEMKRTTTPAPRPPTPAPTIASQPLSLRPEACRPAAGGAVHTRGLDFACDIYIWAPLAGTCGVLLLSLVITLYCKRGRKKLLYIFKQPFMRPVQTTQEEDGCSCRFPEEEEGGCELRVKFSRSADAPAYKQGQNQLYNELNLGRREEYDVLDKRRGRDPEMGGKPRRKNPQEGLYNELQKDKMAEAYSEIGMKGERRRGKGHDGLYQGLSTATKDTYDALHMQALPPR
notes: Chimeric antigen receptor (scFv-CD8a TM-4-1BB-CD3zeta) on transduced human T cells; also called PMC444 CAR
- percentage of CAR T cells positive for PSMA binding [1]: 47.1%

B10: PSMA(447)-CAR (CAR PMC 447, clone 1352, VH-linker-VL) (other)
chain: VKLQQSGPELEKPGASVKISCKASGYSFTGYNVNWVKQSNGKSLEWIGNIDPYHGGTTYNQKFEAKATLTVDKSSSTAYMQLKSLTSEDSAVYYCARSSRFDYWGQGTTLTVSSGGGGSGGGGSGGGGSDIVMTQSHKFMSTSVGDRVNITCKASQDVGTAVAWYQQKPGQSPKFLIYWASTRHTGVPDRFTGSGSGTDFTLTISNVQSEDLADYFCHQYTSYPFTFGSGTKLEMKRTTTPAPRPPTPAPTIASQPLSLRPEACRPAAGGAVHTRGLDFACDIYIWAPLAGTCGVLLLSLVITLYCKRGRKKLLYIFKQPFMRPVQTTQEEDGCSCRFPEEEEGGCELRVKFSRSADAPAYKQGQNQLYNELNLGRREEYDVLDKRRGRDPEMGGKPRRKNPQEGLYNELQKDKMAEAYSEIGMKGERRRGKGHDGLYQGLSTATKDTYDALHMQALPPR
notes: Chimeric antigen receptor on transduced human T cells; also called PMC447 CAR
- percentage of CAR T cells positive for PSMA binding [1]: 3.08%

B11: PSMA(8LH)-CAR, derived from antibody #1207 (VL-linker-VH) (other)
chain: IVLTQSPAIMSASPGVKVTMTCRASSSVDSSYLHWYQQKSGASPQVWIYSTSNLASGVPARFSGSGSGTSYSLTISSVEAEDAATYYCQQYSGYPLTFGGGTKLEIKRGGGGSGGGGSGGGGSVKLQQSGPGLVKPSQSLSLTCAVTGYSITSDYAWNWIRKFPGNKLEWMGYISYSGRTTYNPSLESRISITRDTSKNQFFLQLNSVTTEDTATYYCARCYYGSSSRWYGMDYWGRGTSVAVSSTTTPAPRPPTPAPTIASQPLSLRPEACRPAAGGAVHTRGLDFACDIYIWAPLAGTCGVLLLSLVITLYCKRGRKKLLYIFKQPFMRPVQTTQEEDGCSCRFPEEEEGGCELRVKFSRSADAPAYKQGQNQLYNELNLGRREEYDVLDKRRGRDPEMGGKPRRKNPQEGLYNELQKDKMAEAYSEIGMKGERRRGKGHDGLYQGLSTATKDTYDALHMQALPPR
notes: as for B2
- percentage of CAR T cells positive for PSMA binding [1]: 16%

B12: PSMA(6LH)-CAR, derived from antibody #1366 (VL-linker-VH) (other)
chain: TVLTQSPAIMSASPGEKVTMTCRASSSVSSSYLHWYQQKSSASPKLWIYRTSNLASGVPARFSGSGSGTSYSLTISSLEAEDAATYYCQQYSGYPLTFGAGTKLELKRGGGGSGGGGSGGGGSVKLQESGPGLVAPSQSLSITCTVSGFSLTDYGVSWIRQPPGKGLEWLGVIWSDGNTYYNSPLKSRLSINKDNSKSQVFLKMNSLQTDDSAMYYCARHKVYTMDYWGQGTSVTVSSTTTPAPRPPTPAPTIASQPLSLRPEACRPAAGGAVHTRGLDFACDIYIWAPLAGTCGVLLLSLVITLYCKRGRKKLLYIFKQPFMRPVQTTQEEDGCSCRFPEEEEGGCELRVKFSRSADAPAYKQGQNQLYNELNLGRREEYDVLDKRRGRDPEMGGKPRRKNPQEGLYNELQKDKMAEAYSEIGMKGERRRGKGHDGLYQGLSTATKDTYDALHMQALPPR
notes: as for B2
- percentage of CAR T cells positive for PSMA binding [1]: 17.8%

Results, then the binder that gave them:

- binding result [3]: binds
B4: anti-PSMA mouse monoclonal antibody #1352 (antibody, IgG2b, V domains shown)
VH: B3 VH with Q2K, M19I, R37K, N39S, L53Y, K64E, R73K, L80M, N84S
VL: B3 VL with L46F, F91Y, S103K

- binding result [2]: binds
B6: anti-PSMA mouse monoclonal antibody #1377 (antibody, V domains shown)
VH: VQLQQPGAALVRPGASVRLSCKASGYSFTYYWMNWVMQRPGQGLEWIGMIHPSDSETRLSQKFRDKATLTVDKSSSTVYMQLNSPTSDDSAVYYCARDGNFPYYALDYWGQGTSVTVSS
VL: DVVLTQAPLSLPVSLGDQASISCRSSQSLEYSNGNTYLHWYLQKPGQSPELLIYTVSNRFSGVPDRFSGSGSGTDFTLKIHRVEAEDLGVYFCSQSTHVPTFGGGTKLEIKR
notes: as for B3

- binding result [2]: binds
B7: anti-PSMA mouse monoclonal antibody #1207 (antibody, V domains shown)
VH: VKLQQSGPGLVKPSQSLSLTCAVTGYSITSDYAWNWIRKFPGNKLEWMGYISYSGRTTYNPSLESRISITRDTSKNQFFLQLNSVTTEDTATYYCARCYYGSSSRWYGMDYWGRGTSVAVSS
VL: IVLTQSPAIMSASPGVKVTMTCRASSSVDSSYLHWYQQKSGASPQVWIYSTSNLASGVPARFSGSGSGTSYSLTISSVEAEDAATYYCQQYSGYPLTFGGGTKLEIKR
notes: as for B3

- binding result [2]: binds
B8: anti-PSMA mouse monoclonal antibody #1366 (antibody, V domains shown)
VH: VKLQESGPGLVAPSQSLSITCTVSGFSLTDYGVSWIRQPPGKGLEWLGVIWSDGNTYYNSPLKSRLSINKDNSKSQVFLKMNSLQTDDSAMYYCARHKVYTMDYWGQGTSVTVSS
VL: B7 VL with I1T, V16E, D29S, G41S, Q45K, V46L, S50R, V78L, G100A, I106L
notes: as for B3
